The text below walks through data of patent US20030054337A1.

Experiment [1] addresses V12.Pf1 recombinant HBc chimer particle (hepatitis B virus, subtype ayw; Plasmodium falciparum). The experiment in a line: particle ELISA, end point titer dilution of MoAb 2A10. Background: ELISA stands for enzyme-linked immunosorbent assay.
For experiment [2], the target named is V12.Pf3 recombinant HBc chimer particle (hepatitis B virus, subtype ayw; Plasmodium falciparum). The description is as above.
Experiment [3] deals with V12.Pf3.1 recombinant HBc chimer particle (hepatitis B virus, subtype ayw; Plasmodium falciparum). The experiment is described as above.
The target of experiment [4] is V12.Pf3.10 recombinant HBc chimer particle (hepatitis B virus, subtype ayw; Plasmodium falciparum). The experiment is described as above.
The target of experiment [5] is V12.Pf3.11 recombinant HBc chimer particle (hepatitis B virus, subtype ayw; Plasmodium falciparum). The description is as above.
Experiment [6] concerns the target V12.Pf3.12 recombinant HBc chimer particle (hepatitis B virus, subtype ayw; Plasmodium falciparum). The description is as above.
The target in experiment [7] is V12.Pf3.2 recombinant HBc chimer particle (hepatitis B virus, subtype ayw; Plasmodium falciparum). The description is as above.
The target in experiment [8] is V12.Pf3.3 recombinant HBc chimer particle (hepatitis B virus, subtype ayw; Plasmodium falciparum). The description is as above.
In experiment [9] the target is V12.Pf3.4 recombinant HBc chimer particle (hepatitis B virus, subtype ayw; Plasmodium falciparum). The description is as above.
Experiment [10] deals with V12.Pf3.5 recombinant HBc chimer particle (hepatitis B virus, subtype ayw; Plasmodium falciparum). The description is as above.
Experiment [11] addresses V12.Pf3.6 recombinant HBc chimer particle (hepatitis B virus, subtype ayw; Plasmodium falciparum). The description is as above.
For experiment [12], the target named is V12.Pf3.8 recombinant HBc chimer particle (hepatitis B virus, subtype ayw; Plasmodium falciparum). The description is as above.
The target in experiment [13] is V12.Pf3.9 recombinant HBc chimer particle (hepatitis B virus, subtype ayw; Plasmodium falciparum). The experiment is described as above.
In experiment [14] the target is V12.Pf3.1 recombinant HBc chimer particle (hepatitis B virus, subtype ayw; Plasmodium falciparum). Briefly: particle ELISA, end point titer dilution of MoAb 2A10; reference V12.Pf3.

Turning to MoAb 2A10 (antibody), the Antigenicity (end point titer, normalized so that the lowest titer is 1) in experiment [1] stood at 33 fold; in experiment [2] it was 165 fold; in experiment [3] it was 33 fold; in experiment [4], 1 fold; in experiment [5], 5 fold; in experiment [6], 5 fold. For the same substance, the Antigenicity (end point titer, normalized so that the lowest titer is 1) worked out at 33 fold in [7]; 5 fold in experiment [8]; 5 fold in [9]; 5 fold in [10]; 5 fold in experiment [11]; 5 fold in [12]. In addition, the Antigenicity (end point titer, normalized so that the lowest titer is 1) in experiment [13] amounted to 5 fold. In experiment [14], the fold less antigenic than V12.Pf3 stood at 5 fold.
